Tested on: HUVEC
Test: ^51Cr release CIK cytotoxicity assay, endothelial cell targets pre-treated with BFA, protein or peptide
Format: cell-based, human
Conditions: for protection of EC from CIK lysis by pre-incubation with purified native protein: gelatin purified protein, 30 minutes, washed before CIK addition
Description: Target cells were metabolically labelled with ^51Cr (Dupont—New England Nuclear, Boston, Mass.) by incubating 1×10^6 cells in […] ^51Cr at 37° C. for 1-1.5 hours. The labelled cells were washed three times with phosphate buffered saline (PBS) containing 0.1% bovine serum albumin. The labelled cells were distributed in flat-bottomed 96 well microtiter plates at a concentration of 2×10^4 cells/well in triplicate. Effector (CIK) cells were added at the indicated ratios. Mabs were added prior to the addition of effector cells, and incubated for 15-30 minutes at room temperature. The final volume of the assay mixture in each well was 0.2 ml. After 4 hours at 37° C., the cells were collected by centrifugation and an aliquot of the supernatant was counted in a gamma counter (Micromedic Systems, Horsham, Pa.). The percentage of specific ^51Cr release was calculated according to the following equation: […]
Spontaneous release was obtained by incubating the labelled cells in complete medium alone and maximal release by treatment of the cells with 1% NP-40.
For brefeldin A (BFA) treatment, freshly confluent HUVEC monolayers, nonadherent target cells or CIK cells at 0.5-2×10^6 cells per ml were incubated with medium supplemented with 0.5-10 μg of brefeldin A (B6hringer Mannheim GmbH, Mannheim, Germany) per ml medium and incubated for 2-6 hours in a humidified incubator with 5% carbon dioxide at 37° C. BFA was dissolved at 100 μg per ml in 70% ethanol and used fresh or stored up to 4 weeks at −20° C. Prior to cytotoxicity assay the cells were rinsed three times with PBS, and fresh medium not containing BFA was added for the remainder of the assay (FIG. 4).
Both HUVEC and OCI-Ly8 cells were incubated with BFA at concentrations of 0, 2.5, 5, 7.5 and 10 μM for 6 hours as described above, washed, labeled with ^51Cr and used in a cytotoxicity assay with d21 CIK cells at an E:T ratio of 20:1. Preincubation of EC targets with 2.5 μM BFA reduced CIK mediated cytotoxicity by 40%.
Subsequent to ^51Cr labeling but prior to addition of effector cells 10-200 μg FPLC purified Hsp47 (Example 7) protein or 10 nM to 10 μM HPLC purified peptide […] (SEQ ID NO:3) (Example 8), both in sterile PBS at pH 7.4 and diluted to the final concentration with RPMI, were added to targets per ml of medium and incubated for 30 minutes at 37° C. in a humidified atmosphere of 5% CO2. In assays using purified protein, targets were subjected to three subsequent washes with 10 volumes of Ca^2+, Mg^2+ and 5% FCS containing PBS prior to providing fresh standard culture medium to the target cells. In assays using purified peptide, the added peptide was present for the entire assay. The remainder of the assay was performed as detailed above, at 37° C. in a humidified atmosphere of 5% CO2.

B1: huHsp47: native human Hsp47, 46.5 KDa protein gelatin-affinity purified from BFA induced HUVEC (protein)
chain: AEVKKPVEAAAPGTAEKLSSKATTLAEPSTGLAFSLYQAMAKDQAVENILVSPVVVASSLGLVSLGGKATTASQAKAVLSAEQLRDEEVHAGLGELLRSLSNSTARNVTWKLGSRLYGPSSVSFADDFVASSKQHYNCEHSKINFPDKRSALQSINEWAAQTTDGKLPEVTKDVESTDGALLVNAMFFKPHWDEKFHHKMVDNRGFMVTRSYTVGVTMMHRTGLYNYYDDEKEKLQLVEMPLAHKLSSLIILMPHHVEPLERLEKLLTKEQLKIWMGKMQKKAVAISLPKGVVEVTHDLQKHLAGLGLTEAIDKNKADLSRMSGKKDLYLASVFHATAFELDTDGNPFDQDIYGREELRSPKLFYADHPFIFLVRDTQSGSLLFIGRLVRLKGDKMRDEL
For B1, the “protection of EC from CIK mediated lysis” value (20 μm of gelatin-affinity purified huHsp47 per 300 μl) was “completely protect”, the “protection of EC from CIK lysis by pre-incubation with purified native protein” value was “protects EC” and the “protection of EC from CIK lysis by pre-incubation with purified native protein” value (listed as p46.5) was “protect previously CIK sensitive EC in a dose responsive fashion”.
